Test [1] deals with T1, GAL4/CAS (human, UniProt P55060 1-971).
T1 sequence (looked up): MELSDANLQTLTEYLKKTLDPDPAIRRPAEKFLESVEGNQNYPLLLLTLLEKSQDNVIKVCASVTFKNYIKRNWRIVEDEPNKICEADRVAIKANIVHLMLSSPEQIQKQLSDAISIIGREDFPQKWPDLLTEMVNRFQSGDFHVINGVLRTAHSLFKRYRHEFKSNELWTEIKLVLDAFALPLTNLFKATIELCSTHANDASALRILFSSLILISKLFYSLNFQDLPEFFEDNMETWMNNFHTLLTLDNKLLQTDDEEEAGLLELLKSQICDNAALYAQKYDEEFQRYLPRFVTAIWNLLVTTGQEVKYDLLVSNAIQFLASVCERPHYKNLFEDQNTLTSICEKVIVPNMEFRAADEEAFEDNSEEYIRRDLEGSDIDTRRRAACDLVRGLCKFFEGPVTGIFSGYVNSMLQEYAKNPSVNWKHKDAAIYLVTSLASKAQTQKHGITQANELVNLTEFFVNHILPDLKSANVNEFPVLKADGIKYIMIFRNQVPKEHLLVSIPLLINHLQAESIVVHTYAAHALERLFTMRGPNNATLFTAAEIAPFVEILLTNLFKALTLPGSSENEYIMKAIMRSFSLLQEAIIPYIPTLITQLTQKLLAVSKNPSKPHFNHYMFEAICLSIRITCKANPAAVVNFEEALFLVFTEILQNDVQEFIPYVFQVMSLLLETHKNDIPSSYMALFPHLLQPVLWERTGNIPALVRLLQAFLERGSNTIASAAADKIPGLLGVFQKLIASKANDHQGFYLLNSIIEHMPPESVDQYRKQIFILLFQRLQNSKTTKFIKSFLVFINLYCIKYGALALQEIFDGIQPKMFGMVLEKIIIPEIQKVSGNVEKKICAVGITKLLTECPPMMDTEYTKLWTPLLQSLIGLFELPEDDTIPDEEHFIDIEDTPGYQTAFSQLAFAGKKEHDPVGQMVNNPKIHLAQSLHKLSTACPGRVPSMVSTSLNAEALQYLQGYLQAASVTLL
The test can be described thus: two-hybrid.

The target of test [2] is GAL4/Imp βΔ1/261 (human, UniProt Q14974 262-876). The test can be described thus: two-hybrid.
GAL4/Imp βΔ1/261, sequence (Q14974 262-876, stated change not applied): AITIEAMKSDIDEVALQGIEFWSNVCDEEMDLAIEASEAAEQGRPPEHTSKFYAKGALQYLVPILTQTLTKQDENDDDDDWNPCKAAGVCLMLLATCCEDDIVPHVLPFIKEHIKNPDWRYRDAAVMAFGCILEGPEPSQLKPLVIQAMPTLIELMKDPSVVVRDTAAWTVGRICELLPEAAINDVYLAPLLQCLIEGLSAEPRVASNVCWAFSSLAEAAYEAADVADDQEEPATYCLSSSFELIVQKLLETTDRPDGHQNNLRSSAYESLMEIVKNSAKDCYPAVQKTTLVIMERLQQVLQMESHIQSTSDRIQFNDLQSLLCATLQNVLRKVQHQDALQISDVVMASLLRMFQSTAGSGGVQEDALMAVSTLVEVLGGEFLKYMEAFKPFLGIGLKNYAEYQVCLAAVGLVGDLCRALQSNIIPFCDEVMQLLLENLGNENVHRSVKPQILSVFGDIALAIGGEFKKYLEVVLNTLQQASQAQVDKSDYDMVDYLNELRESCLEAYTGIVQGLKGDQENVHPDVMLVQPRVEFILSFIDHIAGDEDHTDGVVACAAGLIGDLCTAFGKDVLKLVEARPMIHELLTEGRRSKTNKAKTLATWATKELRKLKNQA

B1: VP16/Imp α4 (natural protein, human, UniProt O00505 1-521, looked up)
chain: MAENPSLENHRIKSFKNKGRDVETMRRHRNEVTVELRKNKRDEHLLKKRNVPQEESLEDSDVDADFKAQNVTLEAILQNATSDNPVVQLSAVQAARKLLSSDRNPPIDDLIKSGILPILVKCLERDDNPSLQFEAAWALTNIASGTSAQTQAVVQSNAVPLFLRLLRSPHQNVCEQAVWALGNIIGDGPQCRDYVISLGVVKPLLSFISPSIPITFLRNVTWVIVNLCRNKDPPPPMETVQEILPALCVLIYHTDINILVDTVWALSYLTDGGNEQIQMVIDSGVVPFLVPLLSHQEVKVQTAALRAVGNIVTGTDEQTQVVLNCDVLSHFPNLLSHPKEKINKEAVWFLSNITAGNQQQVQAVIDAGLIPMIIHQLAKGDFGTQKEAAWAISNLTISGRKDQVEYLVQQNVIPPFCNLLSVKDSQVVQVVLDGLKNILIMAGDEASTIAEIIEECGGLEKIEVLQQHENEDIYKLAFEIIDQYFSGDDIDEDPCLIPEATQGGTYNFDPTANLQTKEFNF
As to B1, the results for the β-gal activity in test [1] and in test [2] were 174 mOD/ml and 1850 mOD/ml, respectively.

B2: VP16/Imp α1 (natural protein)
chain: not shown
With B2, the β-gal activity stood at 101 mOD/ml in test [1] and 2350 mOD/ml in test [2].
